Data: patent US20180127505A1, “HUMANIZED ANTI-AXL ANTIBODIES AND THEIR CONJUGATES” (MEDIMMUNE LIMITED, priority 2015, published 2018)

B1: Ab2: anti-AXL antibody, VH SEQ ID NO. 2, VL SEQ ID NO. 5, constant region derived from human antibodies (antibody, V domains shown)
VH: MGFKMESQFQVFVFVFLWLSGVDGQVQLVESGGGVVQPGRSLRLSCAASGFTFSSYGMSVRQAPGKGLEWVATISSGGSYTYYPDSVKGRFTISRDNSKNTLYLQMNSLRAEDTAVYYCARHPIYYTYDDTMDYWGQGTTVTVSS
VL: MGFKMESQFQVFVFVFLWLSGVDGEIVLTQSPATLSLSPGERATLSCSASSSVSSGNFHWYQQKPGLAPRLLIYRTSNLASGIPDRFSGSGSGTDFTLTISRLEPEDFAVYYCQQWSGYPWTFGPGTKVDIK
modifications: human constant regions; Synthetic heavy chain variable region 1H12RHA; Synthetic light chain variable region 1H12RKA
notes: 5, constant region derived from human antibodies
B2: Ab5: anti-AXL antibody, VH SEQ ID NO. 3, VL SEQ ID NO. 7, constant region derived from human antibodies (antibody, V domains shown)
VH: MGFKMESQFQVFVFVFLWLSGVDGEVQLVESGGGLVQPGGSLRLSCAASGFTFSSYGMSWVRQAPGKGLEWVATISSGGSYTYYPDSVKGRFTISRDNAKNSLYLQMNSLRAEDTAVYYCARHPIYYTYDDTMDYWGQGTLVTVSS
VL: MGFKMESQFQVFVFVFLWLSGVDGEIVLTQSPGTLSLSPGERATLSCSASSSVSSGNFHWYQQKPGLAPRLLIYRTSNLASGIPARFSGSGSGTDFTLTISSLEPEDFAVYYCQQWSGYPWTFGGGTKLEIK
modifications: human constant regions; Synthetic heavy chain variable region 1H12RHB; Synthetic light chain variable region 1H12RKB
notes: 7, constant region derived from human antibodies
B3: Ab3: anti-AXL antibody, VH SEQ ID NO. 2, VL SEQ ID NO. 7, constant region derived from human antibodies (antibody, V domains shown)
VH: MGFKMESQFQVFVFVFLWLSGVDGQVQLVESGGGVVQPGRSLRLSCAASGFTFSSYGMSVRQAPGKGLEWVATISSGGSYTYYPDSVKGRFTISRDNSKNTLYLQMNSLRAEDTAVYYCARHPIYYTYDDTMDYWGQGTTVTVSS
VL: MGFKMESQFQVFVFVFLWLSGVDGEIVLTQSPGTLSLSPGERATLSCSASSSVSSGNFHWYQQKPGLAPRLLIYRTSNLASGIPARFSGSGSGTDFTLTISSLEPEDFAVYYCQQWSGYPWTFGGGTKLEIK
modifications: human constant regions; Synthetic heavy chain variable region 1H12RHA; Synthetic light chain variable region 1H12RKB
notes: as for B2
B4: Ab4: anti-AXL antibody, VH SEQ ID NO. 3, VL SEQ ID NO. 5, constant region derived from human antibodies (antibody, V domains shown)
VH: MGFKMESQFQVFVFVFLWLSGVDGEVQLVESGGGLVQPGGSLRLSCAASGFTFSSYGMSWVRQAPGKGLEWVATISSGGSYTYYPDSVKGRFTISRDNAKNSLYLQMNSLRAEDTAVYYCARHPIYYTYDDTMDYWGQGTLVTVSS
VL: MGFKMESQFQVFVFVFLWLSGVDGEIVLTQSPATLSLSPGERATLSCSASSSVSSGNFHWYQQKPGLAPRLLIYRTSNLASGIPDRFSGSGSGTDFTLTISRLEPEDFAVYYCQQWSGYPWTFGPGTKVDIK
modifications: human constant regions; Synthetic heavy chain variable region 1H12RHB; Synthetic light chain variable region 1H12RKA
notes: as for B1
B5: Ab1 (antibody, V domains shown)
VH: EVQLVESGGDLVKPGGSLKLSCAASGFTFSSYGMSWVRQTPDKRLEWVATISSGGSYTYYPDSVKGRFTISRDNAKNTLYLQMSSLKSEDTAMYYCARHPIYYTYDDTMDYWGQGTSVTVSS
VL: ENVLTQSPAIMAASPGEKVTMTCSASSSVSSGNFHWYQQKPGTSPKLWIYRTSNLASGVPARFSGSGSGTSYSLTISSMEAEDAATYYCQQWSGYPWTFGGGTKLEIK

Columns and labels:
Human Axl-Fc chimera = molecular target: T1, Human Axl-Fc chimera (Homo sapiens, UniProt P30530); assay: SPR measurement of antibody affinity, AXL-Fc chimera antigen; format: binding; details: for Kd / ka, AXL-Fc antigen / kd, AXL-Fc antigen: HBSEP+ running buffer, bivalent binding model
T1 construct: purchased R&D Systems 154-AL
Method: (§1) Protocol 4A: SPR Measurement of Antibody Affinity
(§2) • 1. Sensor Chip CM5 Biacore; Cat. # BR-1000-14 • 2. Amine Coupling Kit (EDC, NHS, ethanolamine-HCl) Biacore; Cat. # BR-1000-50 • 3. Immobilization buffer (10 mM Na acetate, pH 4.0) Biacore; Cat. # BR-1003-49 • 4. 50 mM NaOH Biacore; Cat. # BR-1003-58 • 5. Running buffer (PBS/Tween20 0.05% v/v) • 6. Biacore T200 GE Healthcare • 7. Regeneration solution: 10 mM HCl, 1 M NaCl
(§3) • Activate flow cell 2 with NHS-EDC 420s at 5 μl/min, then inject human AxI-Strep-His (Evitria) (10 μg/mL in 10 mM sodium acetate, pH 4.0) to achieve a coupling of […]. Block with ethanolamine for 420s. Repeat the process for flow cell 1 but with no antigen to create a reference flow cell. 12RU AXL fusion protein was coated. • For the Fc fusion, Human Axl-Fc chimera (R&D Systems #154-AL) (5 μg/mL in 10 mM sodium acetate, pH 4.5) was used with the above protocol. 16RU of AXL-Fc was coated. Protocol with AXL-Strep-His Antigen • Serial 10x dilutions of antibody, from 3000 nM, were made in PBS/Tween20. 2x regeneration cycles were used with 10 mM HCl, 1 M NaCl for 30s at 30 μl/min for both cycles. Start-up solution was PBS/Tween20 and set to 3 cycles. • Sample injection parameters were 120s at 30 μl/min, with 600s dissociation time. • Prime and normalise detector were run before sample application with experimental conditions 25 C and sample storage at 4 C. • Kinetic analysis used BIAevaluation software with bivalent ligand binding model. For chimeric 1H12 with AXL-Strep-His, “heterogeneous ligand” binding model was used due to poor fit with bivalent or monovalent algorithms. • Each antibody dilution was injected twice. Protocol with AXL-Fc Chimera Antigen • The above protocol was used except that the running buffer was HBSEP+, serial 10x dilutions of antibody were from 500 nM in HBSEP+ running buffer and were injected for 180 sec. • Analysis used BIAevaluation software with the bivalent binding model.

human Axl-Strep-His = molecular target: T2, human Axl-Strep-His (Homo sapiens, UniProt P30530, Q764R); assay: SPR measurement of antibody affinity, AXL-Strep-His antigen; format: binding; details: for affinity for Axl-Strep-His compared with Ab1: SPR; for ka, AXL-Strep-His antigen / kd, AXL-Strep-His antigen / Kd: SPR Biacore T200, 25 C, bivalent ligand model (Ab1: heterogeneous ligand model); for Kd: read-out: KD1, AXL-Strep-His antigen
T2 construct: Strep; His; host or cells: transiently transfected CHO cells
T2 sequence (P30530 26-894 Q764R): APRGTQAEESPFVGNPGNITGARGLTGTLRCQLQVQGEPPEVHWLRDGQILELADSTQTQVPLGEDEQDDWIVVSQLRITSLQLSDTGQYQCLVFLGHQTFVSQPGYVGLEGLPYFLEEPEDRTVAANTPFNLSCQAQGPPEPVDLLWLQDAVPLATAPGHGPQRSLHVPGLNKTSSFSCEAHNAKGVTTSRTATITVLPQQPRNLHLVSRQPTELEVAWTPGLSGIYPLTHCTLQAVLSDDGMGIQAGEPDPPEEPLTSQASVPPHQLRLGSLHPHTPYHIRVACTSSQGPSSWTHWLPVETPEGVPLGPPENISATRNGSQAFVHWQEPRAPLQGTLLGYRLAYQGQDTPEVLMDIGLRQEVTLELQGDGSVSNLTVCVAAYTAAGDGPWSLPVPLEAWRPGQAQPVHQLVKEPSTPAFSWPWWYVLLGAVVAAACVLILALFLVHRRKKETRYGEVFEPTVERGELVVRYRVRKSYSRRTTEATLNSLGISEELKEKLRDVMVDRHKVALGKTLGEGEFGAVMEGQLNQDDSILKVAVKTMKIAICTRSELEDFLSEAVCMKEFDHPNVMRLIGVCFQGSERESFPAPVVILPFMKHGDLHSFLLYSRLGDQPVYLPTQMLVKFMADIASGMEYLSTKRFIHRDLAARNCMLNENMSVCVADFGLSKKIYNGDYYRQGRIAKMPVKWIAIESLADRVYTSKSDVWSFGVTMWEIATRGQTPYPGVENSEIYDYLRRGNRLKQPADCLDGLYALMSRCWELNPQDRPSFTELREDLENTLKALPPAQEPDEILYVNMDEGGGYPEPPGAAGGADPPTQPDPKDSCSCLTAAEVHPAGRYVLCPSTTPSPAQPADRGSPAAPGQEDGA
Method: as §1, §2, §3

T1 sequence (P30530 with tags, fused parts or gaps isoform P30530-2 limits assumed): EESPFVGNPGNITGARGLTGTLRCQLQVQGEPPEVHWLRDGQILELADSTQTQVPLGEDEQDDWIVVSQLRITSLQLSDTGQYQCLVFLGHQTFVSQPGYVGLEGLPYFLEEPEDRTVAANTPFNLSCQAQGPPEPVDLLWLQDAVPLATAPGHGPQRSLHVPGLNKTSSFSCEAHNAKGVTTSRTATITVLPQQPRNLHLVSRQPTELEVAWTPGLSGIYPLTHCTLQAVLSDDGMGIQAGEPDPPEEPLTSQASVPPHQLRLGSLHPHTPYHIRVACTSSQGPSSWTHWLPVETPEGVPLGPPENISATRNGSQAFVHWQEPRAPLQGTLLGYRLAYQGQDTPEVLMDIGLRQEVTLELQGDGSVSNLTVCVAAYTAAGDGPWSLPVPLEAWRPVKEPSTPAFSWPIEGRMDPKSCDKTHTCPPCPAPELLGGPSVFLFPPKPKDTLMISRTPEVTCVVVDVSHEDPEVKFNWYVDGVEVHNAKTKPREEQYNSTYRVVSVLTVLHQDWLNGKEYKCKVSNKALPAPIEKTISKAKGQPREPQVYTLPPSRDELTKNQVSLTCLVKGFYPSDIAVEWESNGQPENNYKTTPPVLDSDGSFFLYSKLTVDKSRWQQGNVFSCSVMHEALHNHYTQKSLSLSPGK

Row | Molecule | affinity for Axl-Fc compared with Ab1 (Human Axl-Fc chimera) | Kd (Human Axl-Fc chimera) | ka, AXL-Fc antigen (Human Axl-Fc chimera) | kd, AXL-Fc antigen (Human Axl-Fc chimera) | affinity for Axl-Strep-His compared with Ab1 (human Axl-Strep-His) | ka, AXL-Strep-His antigen (human Axl-Strep-His) | kd, AXL-Strep-His antigen (human Axl-Strep-His) | Kd (human Axl-Strep-His)
1 | B1 | higher affinity | 1.84 nM | 83700 M⁻¹ s⁻¹ | 0.000154 s⁻¹ | higher affinity | 13200 M⁻¹ s⁻¹ | 0.000441 s⁻¹ | 33.4 nM
2 | B2 | – | – | 20600 M⁻¹ s⁻¹ | 0.000159 s⁻¹ | higher affinity | 18900 M⁻¹ s⁻¹ | 0.000435 s⁻¹ | –
3 | B3 | – | 8.5 nM | 24500 M⁻¹ s⁻¹ | 0.0002 s⁻¹ | higher affinity | 19200 M⁻¹ s⁻¹ | 0.000636 s⁻¹ | 33.1 nM
4 | B4 | higher affinity | – | 290000 M⁻¹ s⁻¹ | 0.000396 s⁻¹ | – | 9759 M⁻¹ s⁻¹ | 0.00059 s⁻¹ | –
5 | B5 | – | – | 30900 M⁻¹ s⁻¹ | 0.000142 s⁻¹ | – | 13100 M⁻¹ s⁻¹ | 0.000533 s⁻¹ | –
